Test results from doi:10.1101/2023.10.23.563594 (bioRxiv, 2023).
Residue numbers refer to the chain shown, from its start. Names and notes keep the numbering of the source.

T1: full-length unlabelled RING1B-PCGF4 catalytic dimer (human, UniProt Q99496-1;P35226)
T1 sequence 1: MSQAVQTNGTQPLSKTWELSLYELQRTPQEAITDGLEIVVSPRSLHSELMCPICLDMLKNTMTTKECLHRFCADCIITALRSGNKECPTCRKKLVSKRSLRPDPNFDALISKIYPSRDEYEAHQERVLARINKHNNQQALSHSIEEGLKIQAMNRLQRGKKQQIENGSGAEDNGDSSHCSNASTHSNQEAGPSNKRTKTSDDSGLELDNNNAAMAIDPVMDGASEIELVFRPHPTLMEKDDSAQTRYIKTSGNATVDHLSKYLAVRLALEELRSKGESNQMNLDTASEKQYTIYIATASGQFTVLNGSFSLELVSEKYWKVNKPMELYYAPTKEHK
T1 sequence 2: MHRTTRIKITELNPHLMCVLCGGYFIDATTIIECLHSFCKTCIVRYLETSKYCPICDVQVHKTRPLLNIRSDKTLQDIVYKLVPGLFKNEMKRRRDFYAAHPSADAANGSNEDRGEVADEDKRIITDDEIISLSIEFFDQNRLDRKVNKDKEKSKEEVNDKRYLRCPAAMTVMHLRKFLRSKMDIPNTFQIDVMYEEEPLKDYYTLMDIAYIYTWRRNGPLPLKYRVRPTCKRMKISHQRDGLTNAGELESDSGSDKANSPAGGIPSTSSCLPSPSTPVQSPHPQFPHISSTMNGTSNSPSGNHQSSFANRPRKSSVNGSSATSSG

B1: RING1 and YY1-binding protein (RYBP), full-length wild type, co-expressed in the vPRC1.4 complex (natural protein)
chain: MTMGDKKSPTRPKRQAKPAADEGFWDCSVCTFRNSAEAFKCSICDVRKGTSTRKPRINSQLVAQQVAQQYATPPPPKKEKKEKVEKQDKEKPEKDKEISPSVTKKNTNKKTKPKSDILKDPPSEANSIQSANATTKTSETNHTSRPRLKNVDRSTAQQLAVTVGNVTVIITDFKEKTRSSSTSSSTVTSSAGSEQQNQSSSGSESTDKGSSRSSTPKGDMSAVNDESF
B2: RYBP full-length, 15N- or 13C/15N-labelled, from E. coli (natural protein)
chain: B1 chain
modifications: uniform 15N or 13C/15N isotope labelling
B3: RYBP A63T, co-expressed with RING1B and PCGF4 (natural protein)
chain: B1 chain with A63T
B4: RYBP Q69K, co-expressed with RING1B and PCGF4 (natural protein)
chain: B1 chain with Q69K
B5: E3 ubiquitin ligase subunit RING1B, full-length, co-expressed in the vPRC1.4 complex (natural protein)
chain: T1 sequence 1
B6: Polycomb group ring-finger subunit PCGF4, full-length, co-expressed in the vPRC1.4 complex (natural protein)
chain: T1 sequence 2

Experiments:
[1] = target: B5; assay: cross-linking
[2] = target: B6; assay: cross-linking
[3] = target: T1, full-length unlabelled RING1B-PCGF4 …; assay: pull-down
[4] = target: B5; assay: pull-down
[5] = target: B6; assay: pull-down
[6] = target: B1; assay: SEC-MALS
[7] = target: B5; assay: SEC-MALS

| Binder | binding result [4] | binding result [5] | stoichiometry N [6] | other results |
| --- | --- | --- | --- | --- |
| B1 |  |  |  | binding result [1]: binds; binding result [2]: binds |
| B2 |  |  |  | binding result [3]: binds |
| B3 | binds | binds |  |  |
| B4 | binds | binds |  |  |
| B5 |  |  | 1 |  |
| B6 |  |  | 1 | stoichiometry N [7]: 1 |
